We go through 9 molecules from publication PMC8625570, “Selectivity Determinants of RHO GTPase Binding to IQGAPs” (International Journal of Molecular Sciences, 2021).

The term stoichiometry N denotes the number of molecules, sites or subunits per partner or assembly.

What all share (details): both partners purified
The target in experiment [1] is T1, IQGAP1^C794 (C-terminal half of human IQGAP1 with the GRD, RGCT and CT domains) (human, UniProt P46940 863-1657).
T1 sequence (looked up): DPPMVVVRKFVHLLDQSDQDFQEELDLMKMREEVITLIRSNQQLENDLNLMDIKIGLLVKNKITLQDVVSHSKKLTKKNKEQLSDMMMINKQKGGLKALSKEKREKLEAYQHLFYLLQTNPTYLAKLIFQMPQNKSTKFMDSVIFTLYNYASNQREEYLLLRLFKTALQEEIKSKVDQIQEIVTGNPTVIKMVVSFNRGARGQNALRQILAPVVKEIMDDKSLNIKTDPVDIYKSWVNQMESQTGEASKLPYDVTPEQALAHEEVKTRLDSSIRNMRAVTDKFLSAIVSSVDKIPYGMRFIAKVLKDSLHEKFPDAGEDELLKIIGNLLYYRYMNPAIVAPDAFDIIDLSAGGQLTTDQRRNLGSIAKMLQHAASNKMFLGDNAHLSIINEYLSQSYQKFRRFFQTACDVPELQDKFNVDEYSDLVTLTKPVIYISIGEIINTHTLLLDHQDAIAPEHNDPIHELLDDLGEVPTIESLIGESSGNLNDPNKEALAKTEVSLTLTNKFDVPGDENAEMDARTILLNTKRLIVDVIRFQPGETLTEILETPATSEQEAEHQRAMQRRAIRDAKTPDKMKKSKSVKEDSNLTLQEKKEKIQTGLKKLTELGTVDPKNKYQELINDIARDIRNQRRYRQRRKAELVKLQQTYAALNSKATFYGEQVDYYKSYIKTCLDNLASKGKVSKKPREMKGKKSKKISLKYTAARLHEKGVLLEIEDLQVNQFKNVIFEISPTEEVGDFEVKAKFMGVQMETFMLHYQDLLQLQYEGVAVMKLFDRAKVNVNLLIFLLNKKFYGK
Briefly: stopped-flow fluorescence spectrometry; kon from 0.2 µM mGppNHp-bound RHO GTPase with 2-8 µM IQGAP1^C794; koff by displacing with 10 µM unlabeled RAC1-GppNHp from 2 µM IQGAP1^C794 with 0.2 µM GTPase; Kd calculated from the rate constants; 25 °C.

A further experiment concerns the target CDC42^Q61L•GppNHp (human, UniProt P60953 1-178, Q61L). Briefly: SEC; analytical SEC of IQGAP1 GRD with CDC42^Q61L•GppNHp or CDC42^WT•GppNHp. (In general: Size exclusion chromatography separates by hydrodynamic size, large species first.)
The next experiment deals with CDC42 (aa 1-178) (human, UniProt P60953 1-178). The description is as above.
CDC42 (aa 1-178), sequence (P60953 1-178): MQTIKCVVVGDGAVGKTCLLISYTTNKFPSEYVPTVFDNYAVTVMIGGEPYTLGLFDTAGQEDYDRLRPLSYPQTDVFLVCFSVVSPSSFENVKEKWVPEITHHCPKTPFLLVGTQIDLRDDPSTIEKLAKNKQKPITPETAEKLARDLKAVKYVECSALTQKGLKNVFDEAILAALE
Another experiment concerns the target RAC1 (aa 1-179) (human, UniProt P63000 1-179). The experiment in a line: stopped-flow fluorescence spectrometry; competition: 4 µM IQGAP1^C794 premixed with 40 µM RAC-binding protein (10-fold molar excess), mixed 1:1 with 0.4 µM RAC1•mGppNHp; 25 °C.
Experiment [2] concerns the target T2, IQGAP2^C795 (C-terminal fragment of IQGAP2) (human, UniProt Q13576 780-1575).
T2 construct: IQGAP2, aa 780-1575; also called IQGAP2^C975
T2 sequence (looked up): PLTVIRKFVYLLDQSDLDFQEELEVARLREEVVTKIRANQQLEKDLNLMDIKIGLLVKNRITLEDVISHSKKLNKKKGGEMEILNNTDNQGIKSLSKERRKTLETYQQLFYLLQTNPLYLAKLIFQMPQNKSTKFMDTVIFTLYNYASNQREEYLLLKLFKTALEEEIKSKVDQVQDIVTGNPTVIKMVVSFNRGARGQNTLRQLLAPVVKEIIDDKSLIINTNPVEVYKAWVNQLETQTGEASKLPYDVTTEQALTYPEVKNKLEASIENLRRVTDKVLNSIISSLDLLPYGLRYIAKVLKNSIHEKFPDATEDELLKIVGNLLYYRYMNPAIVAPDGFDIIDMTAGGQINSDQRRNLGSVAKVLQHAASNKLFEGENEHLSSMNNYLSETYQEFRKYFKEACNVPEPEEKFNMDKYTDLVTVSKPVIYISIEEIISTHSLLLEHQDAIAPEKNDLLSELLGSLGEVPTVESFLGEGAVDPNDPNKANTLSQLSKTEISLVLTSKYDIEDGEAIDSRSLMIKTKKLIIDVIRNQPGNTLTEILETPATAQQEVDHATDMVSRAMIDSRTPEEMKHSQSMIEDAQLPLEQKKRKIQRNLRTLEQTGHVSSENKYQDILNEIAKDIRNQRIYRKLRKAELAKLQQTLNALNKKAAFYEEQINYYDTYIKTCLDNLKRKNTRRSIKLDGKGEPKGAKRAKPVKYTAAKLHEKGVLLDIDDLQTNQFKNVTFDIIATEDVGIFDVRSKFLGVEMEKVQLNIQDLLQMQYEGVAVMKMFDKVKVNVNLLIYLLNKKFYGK
The experiment in a line: stopped-flow fluorescence spectrometry; association (kobs): 2 µM IQGAP1^C794 or IQGAP2^C795 mixed with 0.2 µM mGppNHp-bound RHO GTPase; 30 mM Tris-HCl pH 7.5, 10 mM K2HPO4/KH2PO4 pH 7.4, 2 mM MgCl2, 3 mM DTT, 25 °C.

CDC42^Q61L•GppNHp, sequence (P60953 1-178 Q61L): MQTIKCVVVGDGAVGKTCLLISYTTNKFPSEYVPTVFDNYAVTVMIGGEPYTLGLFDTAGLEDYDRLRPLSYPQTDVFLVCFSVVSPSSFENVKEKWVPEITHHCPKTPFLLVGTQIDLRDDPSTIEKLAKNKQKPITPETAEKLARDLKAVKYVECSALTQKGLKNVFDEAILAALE

B1: CDC42 Q74D (natural protein)
chain: not shown
In the case of B1, the binding result in experiment [1] is given as “binds”.

B2: RHOA-to-RAC1 variant (RHOA K27T, D28N, E47M, E54N, D76Q) (natural protein)
chain: not shown
As to B2, the binding result in experiment [1] is reported as “binds”.

B3: IQGAP1^GRD (RASGAP-related domain of IQGAP1) (domain or fragment, human, UniProt P46940 962-1345, looked up)
chain: SKEKREKLEAYQHLFYLLQTNPTYLAKLIFQMPQNKSTKFMDSVIFTLYNYASNQREEYLLLRLFKTALQEEIKSKVDQIQEIVTGNPTVIKMVVSFNRGARGQNALRQILAPVVKEIMDDKSLNIKTDPVDIYKSWVNQMESQTGEASKLPYDVTPEQALAHEEVKTRLDSSIRNMRAVTDKFLSAIVSSVDKIPYGMRFIAKVLKDSLHEKFPDAGEDELLKIIGNLLYYRYMNPAIVAPDAFDIIDLSAGGQLTTDQRRNLGSIAKMLQHAASNKMFLGDNAHLSIINEYLSQSYQKFRRFFQTACDVPELQDKFNVDEYSDLVTLTKPVIYISIGEIINTHTLLLDHQDAIAPEHNDPIHELLDDLGEVPTIESLIGESS
Take B3: the results for the “stoichiometry N” value with CDC42^Q61L•GppNHp and with CDC42 (aa 1-178) were 2 CDC42^Q61L per GRD (printed as 2:1; order taken from p-0007) and 1 GRD per CDC42 (printed as 2:2), respectively.

B4: p50^GAP (GAP domain) (domain or fragment)
chain: HVKLEQLGIPRQVLKYDDFLKSTQKSPATAPKPMPPRPPLPNQQFGVSLQHLQEKNPEQEPIPIVLRETVAYLQAHALTTEGIFRRSANTQVVREVQQKYNMGLPVDFDQYNELHLPAVILKTFLRELPEPLLTFDLYPHVVGFLNIDESQRVPATLQVLQTLPEENYQVLRFLTAFLVQISAHSDQNKMTNTNLAVVFGPNLLWAKDAAITLKAINPINTFTKFLLDHQGELFPSPDPSGL
Take B4: the binding result with RAC1 (aa 1-179) is “binds”.

B5: DOCK2 DHR2 (DOCK homology region 2 domain of DOCK2) (domain or fragment)
chain: YKDNNREEMYIRYLYKLRDLHLDCDNYTEAAYTLLLHTWLLKWSDEQCASQVMQTGQQHPQTHRQLKETLYETIIGYFDKGKMWEEAISLCKELAEQYEMEIFDYELLSQNLIQQAKFYESIMKILRPKPDYFAVGYYGQGFPSFLRNKVFIYRGKEYERREDFQMQLMTQFPNAEKMNTTSAPGDDVKNAPGQYIQCFTVQPVLDEHPRFKNKPVPDQIINFYKSNYVQRFHYSRPVRRGTVDPENEFASMWIERTSFVTAYKLPGILRWFEVVHMSQTTISPLENAIETMSTANEKILMMINQYQSDETLPINPLSMLLNGIVDPAVMGGFAKYEKAFFTEEYVRDHPEDQDKLTHLKDLIAWQIPFLGAGIKIHEKRVSDNLRPFHDRMEECFKNLKMKVEKEYGVREMPD
notes: human DOCK2 DHR2 domain, aa 1211-1624; also called DOCK DHR2; source: pOPIN vector, purified; the methods say all proteins except IQGAP2^C795 were isolated as GST fusions with GST cleaved
Take B5: the binding result with RAC1 (aa 1-179) is recorded as “binds”.

B6: PAK1 GBD (GTPase-binding domain of PAK1) (domain or fragment)
chain: SILPGDKTNKKKEKERPEISLPSDFEHTIHVGFDAVTGEFTGMPEQWARLLQTSNITKSEQKKNPQAVLDVLEFYNSKKTSNSQK
Take B6: in the experiment with RAC1 (aa 1-179), the binding result was “binds”.

B7: RHOG (aa 1-178) (natural protein)
chain: not shown
B7: the binding result in experiment [1] and in experiment [2] was “binds” each time.

B8: CDC42 T25K/N26D (natural protein)
chain: not shown
Turning to B8, the binding result in experiment [1] is listed as “binds”.

B9: CDC42 V85D/S88D (natural protein)
chain: not shown
On to B9, for which the binding result in experiment [1] is “binds”.
